Measured values as given in publication PMC4312047.
Values joined by “and” are separate entries in the source; they are usually repeats but may differ in a detail not shown here. Identical values can stand only once.

Columns and labels:
[1] = biological target: PHB domain of B. subtilis YuaG (FloT) (Bacillus subtilis); assay: native gel or EMSA; blue native PAGE of the isolated PHB domain, according to Wittig et al.
[2] = biological target: PHB domain of B. subtilis YuaG (FloT) (Bacillus subtilis); assay: SDS-PAGE (SDS-resistant oligomers); purified PHB domain without cross-linking on denaturing SDS-PAGE; colloidal Coomassie blue staining or anti-His immunoblot
[3] = biological target: PHB domain of B. subtilis YuaG (FloT) (Bacillus subtilis); assay: SEC; Superose 6 10/300 GL, buffer A (50 mM TrisHCl pH 7.5, 150 mM NaCl, 5 mM MgCl2), RT; column calibrated with the BIO-RAD Gel Filtration Standard; fractions checked by SDS-PAGE and anti-His immunoblot

stoichiometry N [1]: 14 | stoichiometry N [2]: 4 and 8 | stoichiometry N [3]: 14.8
Substance: PHB domain of B. subtilis YuaG (FloT) (domain or fragment)
